Data published in PMC12724383.

Legend:
Conditions in all cases: 50 mM HEPES, 150 mM NaCl, 10% glycerol (pH not given for the reactions; protein storage buffer pH 7.5), room temperature, 15 min (EMSA) or 40 min …
[1] = test system: T1, DbuR (Pseudomonas putida), ORF:fe707e5d; assay: DNase I footprinting
T1 sequence: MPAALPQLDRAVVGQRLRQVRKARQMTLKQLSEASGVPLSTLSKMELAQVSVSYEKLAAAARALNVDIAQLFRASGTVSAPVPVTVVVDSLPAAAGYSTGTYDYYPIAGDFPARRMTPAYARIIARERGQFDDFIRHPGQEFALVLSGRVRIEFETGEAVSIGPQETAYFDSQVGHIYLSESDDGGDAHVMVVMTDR

[2] = test system: T1, DbuR (Pseudomonas putida), ORF:fe707e5d; assay: competition EMSA
[3] = test system: T1, DbuR (Pseudomonas putida), ORF:fe707e5d; assay: EMSA

TCAGGGATCTCGGCATGCGGCGGTGGTCGGGCATCTTACCTTGGACCCTTGCGCATTTCTAAATTCTCATATATTAGAATTCTCATAAATGATAATTGCCTGGCAGGAGCGTGCATGACCCCGACCTACGACA (double strand) [Pdbu 133 bp, 5'-FAM/5'-HEX]
binding [1]: binds

TCAGGGATCTCGGCATGCGGCGGTGGTCGGGCATCTTACCTTGGACCCTTGCGCATTTCTAAATTCTCATATATTAGAATTCTCATAAATGATAATTGCCTGGCAGGAGCGTGCATGACCCCGACCTACGACA (double strand) [Pdbu 133 bp, unlabeled]
binding [2]: binds

TCAGGGATCTCGGCATGCGGCGGTGGTCGGGCATCTTACCTTGGACCCTTGCGCATTTCTAAATTCTCATATATTAGAATTCTCATAAATGATAATTGCCTGGCAGGAGCGTGCATGACCCCGACCTACGACA (double strand) [Pdbu 133 bp, 5'-FAM]
binding [3]: binds
